Reference: patent US20250136721A1 (GlaxoSmithKline, published 2025)
Where two headings read alike, the source gives them in different places.

T1: Recombinant human TNFR1-Fc (human, UniProt P19438 30-211, limits assumed)
T1 construct: bought reagent; also called hTNFR1:Fc; not shown: Fc part; not described
T1 sequence (looked up): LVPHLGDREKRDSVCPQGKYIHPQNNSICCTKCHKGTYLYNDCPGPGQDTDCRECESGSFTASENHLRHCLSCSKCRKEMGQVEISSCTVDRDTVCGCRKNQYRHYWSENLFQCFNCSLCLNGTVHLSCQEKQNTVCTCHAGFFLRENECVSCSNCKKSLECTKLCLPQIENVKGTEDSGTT


Assays:
[1] = molecular target: pre-existing anti-VH ADA in human serum; test: ADA confirmation assay (MSD) described previously, mean of 10 donor sera
[2] = molecular target: T1, Recombinant human TNFR1-Fc; test: ELISA: dAb on coated recombinant human TNFR1-Fc, anti-Vh detection
[3] = molecular target: pre-existing anti-VH ADA in human serum; test: ADA confirmation assay (MSD): 10 ug/mL test material against labelled DOM1H-131-206, mean of 10 sera
[4] = molecular target: pre-existing anti-VH ADA in human serum; test: ADA confirmation assay (MSD): 10 ug/mL test material against labelled DOM1H-131-206; share of 10 ADA-positive sera with binding
[5] = molecular target: pre-existing anti-VH ADA in human serum; test: ADA confirmation assay (MSD): 10 ug/mL test material against labelled DOM1H-131-206, mean of 10 sera; remark: listed apart in the source
[6] = molecular target: pre-existing anti-VH ADA in human serum; test: ADA confirmation assay (MSD): 10 ug/mL test material against labelled DOM1H-131-206; share of 10 ADA-positive sera with binding; remark: listed apart in the source

Row | Binder | % inhibition in confirmation assay [1] | EC50 [2] | Mean % inhibition of signal in confirmation assay [3] | % subjects with ADA binding (10 subjects) (% of subjects) [4] | Mean % inhibition of signal in confirmation assay [5] | % subjects with ADA binding (10 subjects) (% of subjects) [6]
1 | DOM10H-53-567 C-terminal AS (protein) VH: GVQLLESGGGLVQPGGSLRLSCAASGFVFAWYDMGWVRQAPGKGLEWVSSIDWHGEVTYYADSVKGRFTISRDNSKNTLYLQMNSLRAEDTAVYYCATAEDEPGYDYWGQGTLVTVSSAS | 14.8% |  |  |  |  | 
2 | DOM1H-131-206 P41A (other, name in Kabat numbering, VH dAb variant) VH: EVQLLESGGGLVQPGGSLRLSCAASGFTFAHETMVWVRQAAGKGLEWVSHIPPDGQDPFYADSVKGRFTISRDNSKNTLYLQMNSLRAEDTAVYHCALLPKRGPWFDYWGQGTLVTVSS |  | 0.59 nM | 87.3% | 100 |  | 
3 | DOM1H-131-206 K43A (other, name in Kabat numbering, VH dAb variant) VH: EVQLLESGGGLVQPGGSLRLSCAASGFTFAHETMVWVRQAPGAGLEWVSHIPPDGQDPFYADSVKGRFTISRDNSKNTLYLQMNSLRAEDTAVYHCALLPKRGPWFDYWGQGTLVTVSS |  | 0.67 nM | 99.5% | 100 |  | 
4 | DOM1H-131-206 H91S (other, name in Kabat numbering, VH dAb variant) VH: EVQLLESGGGLVQPGGSLRLSCAASGFTFAHETMVWVRQAPGKGLEWVSHIPPDGQDPFYADSVKGRFTISRDNSKNTLYLQMNSLRAEDTAVYSCALLPKRGPWFDYWGQGTLVTVSS |  | 0.96 nM | 99.4% | 100 |  | 
5 | DOM1H-131-206 R83A (other, name in Kabat numbering, VH dAb variant) VH: EVQLLESGGGLVQPGGSLRLSCAASGFTFAHETMVWVRQAPGKGLEWVSHIPPDGQDPFYADSVKGRFTISRDNSKNTLYLQMNSLAAEDTAVYHCALLPKRGPWFDYWGQGTLVTVSS |  | 0.76 nM | 99.3% | 100 |  | 
6 | DOM1H-131-206 P14A, G44E (other, name in Kabat numbering, VH dAb variant) VH: EVQLLESGGGLVQAGGSLRLSCAASGFTFAHETMVWVRQAPGKELEWVSHIPPDGQDPFYADSVKGRFTISRDNSKNTLYLQMNSLRAEDTAVYHCALLPKRGPWFDYWGQGTLVTVSS |  | 2.03 nM | 61.6% | 100 |  | 
7 | DOM1H-131-206 G44E, L108Q (other, name in Kabat numbering, VH dAb variant) VH: EVQLLESGGGLVQPGGSLRLSCAASGFTFAHETMVWVRQAPGKELEWVSHIPPDGQDPFYADSVKGRFTISRDNSKNTLYLQMNSLRAEDTAVYHCALLPKRGPWFDYWGQGTQVTVSS |  | 1.64 nM | 91.3% | 100 |  | 
8 | DOM1H-131-206 P14A, H91S (other, name in Kabat numbering, VH dAb variant) VH: EVQLLESGGGLVQAGGSLRLSCAASGFTFAHETMVWVRQAPGKGLEWVSHIPPDGQDPFYADSVKGRFTISRDNSKNTLYLQMNSLRAEDTAVYSCALLPKRGPWFDYWGQGTLVTVSS |  | 0.75 nM | 50.2% | 60 |  | 
9 | DOM10H-53-567 C-terminal ASTK (protein) VH: GVQLLESGGGLVQPGGSLRLSCAASGFVFAWYDMGWVRQAPGKGLEWVSSIDWHGEVTYYADSVKGRFTISRDNSKNTLYLQMNSLRAEDTAVYYCATAEDEPGYDYWGQGTLVTVSSASTK | 27.7% |  |  |  |  | 
10 | DOM1H-131-206 P14Q + C-terminal ASTKG (protein, name in Kabat numbering) VH: EVQLLESGGGLVQQGGSLRLSCAASGFTFAHETMVWVRQAPGKGLEWVSHIPPDGQDPFYADSVKGRFTISRDNSKNTLYLQMNSLRAEDTAVYHCALLPKRGPWFDYWGQGTLVTVSSASTKG |  |  |  |  | 21.8% | 10
11 | DOM10H-53-567 C-terminal ASTKG (protein) VH: GVQLLESGGGLVQPGGSLRLSCAASGFVFAWYDMGWVRQAPGKGLEWVSSIDWHGEVTYYADSVKGRFTISRDNSKNTLYLQMNSLRAEDTAVYYCATAEDEPGYDYWGQGTLVTVSSASTKG | 13.4% |  |  |  |  | 
12 | DOM1H-131-206 C-terminal AST (protein) VH: EVQLLESGGGLVQPGGSLRLSCAASGFTFAHETMVWVRQAPGKGLEWVSHIPPDGQDPFYADSVKGRFTISRDNSKNTLYLQMNSLRAEDTAVYHCALLPKRGPWFDYWGQGTLVTVSSAST |  |  | 26.4% | 50 | 35% | 20

Continued, values first:

Row | % inhibition in confirmation assay [1] | EC50 [2] | Mean % inhibition of signal in confirmation assay [3] | % subjects with ADA binding (10 subjects) (% of subjects) [4] | Mean % inhibition of signal in confirmation assay [5] | % subjects with ADA binding (10 subjects) (% of subjects) [6] | Binder
13 | 29% |  |  |  |  |  | DOM10H-53-567 C-terminal AST (protein) VH: GVQLLESGGGLVQPGGSLRLSCAASGFVFAWYDMGWVRQAPGKGLEWVSSIDWHGEVTYYADSVKGRFTISRDNSKNTLYLQMNSLRAEDTAVYYCATAEDEPGYDYWGQGTLVTVSSAST
14 |  | 0.86 nM | 99.5% | 100 |  |  | DOM1H-131-206 G44E (other, name in Kabat numbering, VH dAb variant) VH: EVQLLESGGGLVQPGGSLRLSCAASGFTFAHETMVWVRQAPGKELEWVSHIPPDGQDPFYADSVKGRFTISRDNSKNTLYLQMNSLRAEDTAVYHCALLPKRGPWFDYWGQGTLVTVSS
15 |  | 3.5 nM | 99.1% | 100 |  |  | DOM1H-131-206 G44E, H91S (other, name in Kabat numbering, VH dAb variant) VH: EVQLLESGGGLVQPGGSLRLSCAASGFTFAHETMVWVRQAPGKELEWVSHIPPDGQDPFYADSVKGRFTISRDNSKNTLYLQMNSLRAEDTAVYSCALLPKRGPWFDYWGQGTLVTVSS
16 | 95.1% |  |  |  |  |  | DOM10H-53-567 (protein) VH: GVQLLESGGGLVQPGGSLRLSCAASGFVFAWYDMGWVRQAPGKGLEWVSSIDWHGEVTYYADSVKGRFTISRDNSKNTLYLQMNSLRAEDTAVYYCATAEDEPGYDYWGQGTLVTVSS
17 |  |  |  |  | 33% | 20 | DOM1H-131-206 P14T + C-terminal A (protein, name in Kabat numbering) VH: EVQLLESGGGLVQTGGSLRLSCAASGFTFAHETMVWVRQAPGKGLEWVSHIPPDGQDPFYADSVKGRFTISRDNSKNTLYLQMNSLRAEDTAVYHCALLPKRGPWFDYWGQGTLVTVSSA
18 | 12.8% |  |  |  |  |  | DOM10H-53-567 C-terminal A (protein) VH: GVQLLESGGGLVQPGGSLRLSCAASGFVFAWYDMGWVRQAPGKGLEWVSSIDWHGEVTYYADSVKGRFTISRDNSKNTLYLQMNSLRAEDTAVYYCATAEDEPGYDYWGQGTLVTVSSA
